Measurements published in patent publication US20070020627.

How the values were obtained:
[1] = tested on: E2x (6-finger) (artificial); conditions: stated as Km; assay not described
[2] = tested on: VP64-E2c (6-finger) (artificial); test: cell_activity; conditions: HeLa luciferase
[3] = tested on: SKD-E2c (6-finger) (artificial); test: cell_activity; conditions: HeLa luciferase
[4] = tested on: SKD-E2cJ15E2x (12-finger) (artificial); test: cell_activity; conditions: HeLa luciferase
[5] = tested on: E2cJ15E2x-VP64 (12-finger) (artificial); test: cell_activity; conditions: HeLa luciferase
[6] = tested on: E2c (6-finger) (artificial); conditions: stated as Km; assay not described

For “ACCGGAGAAACCAGGGGA (double strand) [E2X target]”, the Kd [1] was 15 nM.
In the case of “E2p luciferase reporter (erbB2 promoter)”, the activity (fold activation) [2] is reported as 78, the activity (fold repression) [3] is reported as 36 and the activity (fold repression) [4] is reported as 8. It also gave an activity (fold activation) [5] of 45.
“GGGGCCGGAGCCGCAGTG (double strand) [E2c target]” showed a Kd [6] of 0.5 nM.
